In the DeepSol protein solubility set:

test: soluble on expression in E. coli; label from the status in PepcDB or PDB records

| Sequence | soluble on expression in E. coli |
| --- | --- |
| MSELYVAECNAAKARLEVETECRRIIADNYEKVLERAKEYSKKLEAPILAKICEVGYFCGAHVVRTNQVTMEMGANYYGECSIHTAEKILDRRVSEMRRQREEGLDSIRMLDDKIKFAQDNFSSVSIDGGPIEIVEKYDEEMEKLFYQNRKNKKMSQNDEQNEKIIEKNKLNGDQDHNDVMNRLEELEKLEQDNDEMEEAPIPKPFEVSNEDLQDLGKLEEVEEVEQDPTDKKLRFGMNERLLAQPGVTQKEMERLLDFLDTCDEESSDEEYDEDEEEGDDDEENLNNSVEELDSDDYASDDNIEKSNNSDQQLKSKKIETQVIKVEEIVEETVTKTTVKRKKSGVRFAQQLENVKTFHQTDTVEIKEEDSVIETKSILRSTEPTPVDRSALEPEQKELAAMSTMTFPGEIVEKNPYECEPSTSRDPAPVITEKKVSKFRASRHRN | not soluble |
| MSEMLNHVASCRLPTEWGVFTMHGFEEANGQEHVALTVGNFSDGNPVLTRIHSECLTGDALFSRKCDCGPQLEAAMRAVQTEGRGIIVYLRQEGRGIGLINKIRAYHLQDQGMDTVEANLALGLPVDARDFRLAQSIYEYLGIRSVKLLTNNPEKIQTLKDAGINVVERIPLHVGENLENKRYLQTKADKLGHLMSE | not soluble |
| MSEPILKVENLKKYFPVRRGFLSALRGEPQKFVKAVDGVSFEIYKQQVFALVGESGCGKTTTGKLIVKLLEPTDGKIYLEGQDVTELRTKEEIKAYRRKVQMIFQDPFSSMNPRFRIYDVLEEPLLIHGIGETRAEREELIYKALEMVKITPPEEYVGRFPHMLSGGQRQRVAIARALILNPTFVVADEPVSMLDVSIRAEILELMKELKEKMGVTYLYITHDLSTARYFADWIAVMYLGRIVEMGPAKEIIDNPLHPYTRALLAAVPEPIPERKDVIKELPIKGEVPSAVNIPSGCRFHPRCIYFKKGLCDVKQPQLIEYSHNHWVECHRVGEI | soluble |
| MSEQSFSNANKGSETLNGSAASFVSHKRFYDDTNFPKGFKRSGDFTSKEAELLELHGHAMKNLAEGKTLPVTADEAQFVEVIKGNIAPSSLLEHIWLKYRKLARGKPFYAVVGTVHLPATKPEVEVEPEAAFDVDVEIEDDVQDEAEPEDKA | soluble |
| MSERLSITPLGPYIGAQISGADLTRPLSDNQFEQLYHAVLRHQVVFLRDQAITPQQQRALAQRFGELHIHPVYPHAEGVDEIIVLDTHNDNPPDNDNWHTDVTFIETPPAGAILAAKELPSTGGDTLWTSGIAAYEALSVPFRQLLSGLRAEHDFRKSFPEYKYRKTEEEHQRWREAVAKNPPLLHPVVRTHPVSGKQALFVNEGFTTRIVDVSEKESEALLSFLFAHITKPEFQVRWRWQPNDIAIWDNRVTQHYANADYLPQRRIMHRATILGDKPFYRAGLEHHHHHH | soluble |
| MSESFAELFEESLKSLDMQPGAIITGIVVDIDGDWVTVHAGLKSEGVIPVEQFYNEQGELTIKVGDEVHVALDAVEDGFGETKLSREKAKRAESWIVLEAAFAADEVVKGVINGKVKGGFTVDVNGIRAFLPGSLVDVRPVRDTTHLEGKELEFKVIKLDQKRNNVVVSRRSVLEAENSAEREALLESLQEGQQVKGIVKNLTDYGAFVDLGGVDGLLHITDMAWKRIKHPSEIVNVGDEIDVKVLKFDRERNRVSLGLKQLGEDPWVAIKARYPEGTRVMARVTNLTDYGCFAELEEGVEGLVHVSEMDWTNKNIHPSKVVQVGDEVEVQVLDIDEERRRISLGIKQCKSNPWEDFSSQFNKGDRISGTIKSITDFGIFIGLDGGIDGLVHLSDISWNEVGEEAVRRFKKGDELETVILSVDPERERISLGIKQLEDDPFSNYASLHEKGSIVRGTVKEVDAKGAVISLGDDIEGILKASEISRDRVEDARNVLKEGEEVEAKIISIDRKSRVISLSVKSKDVDDEKDAMKELRKQEVESAGPTTIGDLIRAQMENQGLEHHHHHH | soluble |
| MSEVKYKRVILKLSGEALAGEKGFGINPPVIKTVAEELKDVYDMGVQIAIVVGGGNMWRGEAGAQMGMERAQADYIGMLATIMNALALQDNLESIGVPTRVQTSIEMRQIAEPYIRRKAMRHLEKRRIVIFAGGTGSPYFSTDTTAALRAAEINADAILMAKNGVDGVYSADPNKDASAVKFDTLTHLDIINKGLQVMDTTASSLSMDNDIPVVVFNLNEPGNIRKVVAGEHIGTTVRGKLEHHHHHH | soluble |
| MSEYLAAADYLPHSAPMVLVDEVIHVDDEHAHCRVAVSREGILAPFLNAQGHLPAWFGIEIIAQTIGVWSGWHGRQSLGLQEKPRPGMLLGGRGYHCQQAIFPAGSLLDVTVMLVMRDEKIGSFEGEIAIDGEKYASGRLNTYQPDDRELNILLEQGKPL | not soluble |
| MSFDGFFLHHLTNELKENLLYGRIQKVNQPFERELVLTIRNHRKNYKLLLSAHPVFGRVQITQADFQNPQVPNTFTMIMRKYLQGAVIEQLEQIDNDRIIEIKVSNKNEIGDAIQATLIIEIMGKHSNIILVDRAENKIIESIKHVGFSQNSYRTILPGSTYIEPPKTAAVNPFTITDVPLFEILQTQELTVKSLQQHFQGLGRDTAKELAELLTTDKLKRFREFFARPTQANLTTASFAPVLFSDSHATFETLSDMLDHFYQDKAERDRINQQASDLIHRVQTELDKNRNKLSKQEAELLATENAELFRQKGELLTTYLSLVPNNQDSVILDNYYTGEKIEIALDKALTPNQNAQRYFKKYQKLKEAVKHLSGLIADTKQSITYFESVDYNLSQASIDDIEDIREELYQAGFLKSRQRDKRHKRKKPEQYLASDGTTILMVGRNNLQNEELTFKMAKKGELWFHAKDIPGSHVIIKDNLDPSDEVKTDAAELAAYYSKARLSNLVQVDMIEAKKLHKPSGAKPGFVTYTGQKTLRVTPDQAKILSMKLS | not soluble |
| MSFPLIFERSRKGRRGLKLVKAVPKAEDLIPKEHLREVPPRLPEVDELTLVRHYTGLSRRQVGVDTTFYPLGSCTMKYNPKLHEEAARLFADLHPYQDPRTAQGALRLMWELGEYLKALTGMDAITLEPAAGAHGELTGILIIRAYHEDRGEGRTRRVVLVPDSAHGSNPATASMAGYQVREIPSGPEGEVDLEALKRELGPHVAALMLTNPNTLGLFERRILEISRLCKEAGVQLYYDGANLNAIMGWARPGDMGFDVVHLNLHKTFTVPHGGGGPGSGPVGVKAHLAPYLPVPLVERGEEGFYLDFDRPKSIGRVRSFYGNFLALVRAWAYIRTLGLEGLKKAAALAVLNARYLKELLKEKGYRVPYDGPSMHEFVAQPPEGFRALDLAKGLLELGFHPPTVYFPLIVKEALMVEPTETEAKETLEAFAEAMGALLKKPKEWLENAPYSTPVRRLDELRANKHPKLTYFDEG | soluble |
| MSFSDHFSAVAASYAKARPRYPQRWFRYLARIVPDRQRVWDCATGNGQAAIALAEYFSEVIGSDASAAQVRQARSHPRVQYLVFPAEATPLAPASLDLITVAQAAHWFDLPQFYIEAQRLLRPGGVIALWGYGLGSLNPAIDHVFNHFYRDWLDPYWPPERQWVEQAYEGLSFPFEPLPTPTFSMQCDWTLFDLLAYLRTWSGVQQFQRQRGFDPVWAIAPELQRVWGDPQRYRRITWPLFAKVGRWQPDRVRLEHHHHHH | not soluble |
| MSFSESRHNENCLIQEGALLFCEQAVVAPVSGDLVFRPLKIEVLSKLLAFIDGAGLVDTTYAESDKWVLLSPEFRAIWQDRKRCEYWFLQQIITPSPAFNKVLALLRKSESYWLVGYLLAQSTSGNTMRMLGEDYGVSYTHFRRLCSRALGGKAKSELRNWRMAQSLLNSVEGHENITQLAVNHGYSSPSHFSSEIKELIGVSPRKLSNIIQLADK | not soluble |
| MSFVVIIPARYASTRLPGKPLVDINGKPMIVHVLERARESGAERIIVATDHEDVARAVEAAGGEVCMTRADHQSGTERLAEVVEKCAFSDDTVIVNVQGDEPMIPATIIRQVADNLAQRQVGMATLAVPIHNAEEAFNPNAVKVVLDAEGYALYFSRATIPWDRDRFAEGLETVGDNFLRHLGIYGYRAGFIRRYVNWQPSPLEHIEMLEQLRVLWYGEKIHVAVAQEVPGTGVDTPEDLERVRAEMRGSHHHHHH | soluble |
| MSFWRVFLFGLFLTPPAAACDLALALAVDVSGSVDEGEYRTQMDGLAHALRDPVVSEALVRAEAQLMLVQWTGSDRQRVTIPWTQASSFDALDRFADRVAADPRIWRNYSTAIGEALEVTMAAFAQVPDCARHLIDVSGDGPSNEGIEPLAVHRDLRALGITVNAIAIEQSEPDLTAYFYENVIVGEGAFVETANGFADYPARIRKKLLREVTQQTAALDLEHHHHHH | not soluble |
| MSGAAAASAAGYDRHITIFSPEGRLYQVEYAFKATNQTNINSLAVRGKDCTVVISQKKVPDKLLDPTTVSYIFCISRTIGMVVNGPIPDARNAALRAKAEAAEFRYKYGYDMPCDVLAKRMANLSQIYTQRAYMRPLGVILTFVSVDEELGPSIYKTDPAGYYVGYKATATGPKQQEITTNLENHFKKSKIDHINEESWEKVVEFAITHMIDALGTEFSKNDLEVGVATKDKFFTLSAENIEERLVAIAEQD | soluble |
| MSGARRDNRRSNGRDDSSRVAKAENDRKPGRENRGGDEKRGNSNNAARSGGGGGGNRGGAERGIAPAQQPYDNNGGHRSGGGGGRSGGGGTSFNGAAFTESQLMDEVPKKKFTGRCRLFVGNLPNEVKETELKELFSPHGDIAECYLSGKGFAFLRLDTRAHAESAKEAIDGRIIHGRQVRVRFAVHGAAIRVKELSPTVSNEMLYHAFSHFGDVERAVHIVDEKGRPTGEGIVEFERKPNCNEAMAAIRDKVFLLTASPKPLICEVLEPRDEDDGLAERMIPRTPGLSKERELGPRFPTPNSFEYVYGMKWKELYVVEQKRRAQLDEELRESRRRLESDMELAYQDYQAQMLREDLQRRQQELERLEAARRERMRGLGGPPPGMPGGVPPQAQPFNPHGGSMFGGPGGPGGPPPFGQPFQQAPQGMFNVPTGPPPLMGGGGDPRGPPGGMGGPPGHGGMGGPPGHGGQGGPPGHGGMGGPPPGQGGPGVRETWRSWRNASKSHGRSNMIEGVQRLLQIFKSDNGPPGGMPGRDYPPQQGPGGMFGSYGDGGYPPEKKQRR | not soluble |
| MSGELSNRFQGGKAFGLLKARQERRLAEINREFLCDQKYSDEENLPEKLTAFKEKYMEFDLNNEGEIDLMSLKRMMEKLGVPKTHLEMKKMISEVTGGVSDTISYRDFVNMMLGKRSAVLKLVMMFEGKANESSPKPVGPPPERDIASLP | soluble |
| MSGINARPTNSIFSNLCQIFSSLQGCLKTQTPFSDGLFSLKSPYRSIRKHRRIIMEVTISAIINGEFADQYGKRGSQFNENGMLI | not soluble |
| MSGKRISREKLTIKKMIDLYQAKCPQASAEPEHYEALFVYAQKRLDKCVFGEEKPACKQCPVHCYQPAKREEMKQIMRWAGPRMLWRHPILTVRHLIDDKRPVPELPEKYRPKKPRE | not soluble |
| MSGLEAKIAAIRDPDLQAELEAARGGFLFAPIVEHLLFRQRERDAARAQEGAQAEAREAMGRDRRRRDAVREVIESEPTGPENLQHLHSVLALCGLPYRDPGDARDFVREYGRNSLSLSAGRLKNPITGEMELQGLPYGPKARLVLLHLCTEAVRQRSPTIEVADSLSGFMKAMGFAVTGGERGTIGAFKEQLNRLAACSMQLGLWDGEGQASTLNVPPFRQLELWRRGDDGLVWQRTVSFHQDFYDSLIRHALPVDIRAARAFSGSARKLDLLFWTGYRLRALQRPLRLTWDNLHRQFGAENASLRSFRQAFKADLAGLLEVFPRLRIDLDEGGMLLHPADPGSLLVPPKLEHHHHHH | not soluble |
